Assay results published in patent publication US9193963B2, “Mutant endoglucanase” (Toray Industries, Inc., priority 2011, dated 2015).
Residue numbers refer to the chain shown, from its start.

B1: EGIa1 Wild-type: Ignisphaera aggregans-derived endoglucanase1, SEQ ID NO: 7, parent endoglucanase (protein)
chain: MNFFVKNGEIYKLDGATGKPKIIYLFGVNWFGFETRDYVVHGLWARNWVDMLQQIKSLGFNAIRLPFCTYSVQEGTMPNSNAINYNINPDLQGLTSIEIMEKIVAKANELGIYILLDYHRLGCDQIEPLWYSDQVSEQQFIDTWVSVAKRFAKYPNVIGADIRNEPWGATWGTDDPATDWRLAVEKVAPKILEVAPHWLIFVEGTYKTRPDIDERSWYPYYSYYVFWGENLRAVRYYPVRLPYEKIVYSPHTYGPDVFRQPYFDDPIFPENMRSIWMERFGYVKTELGYALVVGEFGGRYGHGGDPRDIIWQIKFVDWLIENRICNFFYWSWNANSGDTGGILKDDWTNIWEDKYQNLKRLMDYCSSIN
modifications: Ignisphaera aggregans EGIa1
B2: EGPh Wild-type: Pyrococcus horikoshii-derived endoglucanase, SEQ ID NO: 1, parent endoglucanase (protein)
chain: MEGNTILKIVLICTILAGLFGQVVPVYAENTTYQTPTGIYYEVRGDTIYMINVTSGEETPIHLFGVNWFGFETPNHVVHGLWKRNWEDMLLQIKSLGFNAIRLPFCTESVKPGTQPIGIDYSKNPDLRGLDSLQIMEKIIKKAGDLGIFVLLDYHRIGCTHIEPLWYTEDFSEEDFINTWIEVAKRFGKYWNVIGADLKNEPHSVTSPPAAYTDGTGATWGMGNPATDWNLAAERIGKAILKVAPHWLIFVEGTQFTNPKTDSSYKWGYNAWWGGNLMAVKDYPVNLPRNKLVYSPHVYGPDVYNQPYFGPAKGFPDNLPDIWYHHFGYVKLELGYSVVIGEFGGKYGHGGDPRDVIWQNKLVDWMIENKFCDFFYWSWNPDSGDTGGILQDDWTTIWEDKYNNLKRLMDSCSKSSSSTQSVIRSTTPTKSNTSKKICGPAILIILAVFSLLLRRAPR
modifications: Pyrococcus horikoshii EGPh
B3: EGPh Mutant: mutant EGPh, SEQ ID NO: 2; 273rd tryptophan substituted with alanine (protein)
chain: B2 chain with W273A
modifications: Pyrococcus horikoshii EGPh W273A
notes: 273rd tryptophan substituted with alanine
B4: EGSt Mutant: mutant EGSt, SEQ ID NO: 38; residue corresponding to 273rd tryptophan substituted with alanine (protein)
chain: MKYLRTILLSLLVFLITLGCSLPFLDVSGKGGTAARATELRVGRLTGVNWFGFETGNHVVHGLWARDYKSMLKQIADLGFNCIRIPWANEMIDKAPNSIQINPSGVDPYTGEQGLNLDLEGLSSLEVLDKIIEEANRLGLYVILDNHSRAADGYMNETLWYTDEYPEERWISDWVMMVRRYKNYPNVIGADLNNEPHGNTGTGMKPPATWGYTLPEYGDTDWKAAAERCAAAILAENPNLYIIVEGVEEYQGDTYWAGGNLKGVRDYPITSIPAENLIYSPHEYGPEVYNQSWFSDPTFPDNMPAIWDEHFWFIYKENIAPVLIGEFGIKEASAADPSSVAYQWFTTFMAYVGDKASWTFWSWNPNSGDTGGILKDDWVTVNEAKYNLIRPYLANPPQPTATPTPTGTPTPTPTPTPTPTPTPTPTPTPTPTATPTPTPTPTPTPTPTPTATPTPSGEYTEIALPFSYDGAGEYYWKTDQFSTDPNDWSRYVNSWNLDLLEINGTDYTNVWVAQHQIPAASDGYWYIHYKSGVSWGHVEIK
modifications: Spirochaeta thermophila EGSt W257A
notes: residue corresponding to 273rd tryptophan substituted with alanine

What was measured:
[1] = Saccharification of lignocellulose 2 with Trichoderma reesei culture solution and endoglucanase; type: biochemical, Rice straw; settings: Lignocellulose 2, 24 hours; cellulase 1.0 mg/mL + endoglucanase 0.1 mg/mL + β-glucosidase (Novozyme 188) 0.01 mg/mL
In short: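 Dilute-sulfuric-acid-autoclaved rice straw (pH ~5) suspended at 5 wt % in 50 mM acetate pH 5.2, hydrolysed 24 h at 50 °C. Enzymes: T. reesei culture solution 1.0 mg/mL, mutant or wild-type endoglucanase 0.1 mg/mL, β-glucosidase 0.01 mg/mL. Glucose released was measured.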

[2] = Saccharification of lignocellulose 1 with Celluclast and endoglucanase; type: biochemical, Rice straw; settings: 5 wt % Lignocellulose 1, pH 5.2, 50° C., 24 hours; 1.0 mg/mL cellulase + 0.1 mg/mL endoglucanase
In short: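 Rice straw pretreated with liquid ammonia (15 min room temperature, then 1 h at 150° C), suspended at 5 wt % in 50 mM acetate pH5.2. Hydrolysed at 50° C for 24 h with 1.0 mg/mL Trichoderma reesei cellulase plus 0.1 mg/mL mutant or wild-type endoglucanase; glucose measured.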

[3] = Activity to degrade phosphoric acid swollen cellulose; type: biochemical
In short: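 Enzyme added to phosphoric acid swollen cellulose in 50 mM acetate buffer, pH 5.2; 1 h reaction at 30–85 °C, stopped by pH change if needed. Glucose released measured by glucose kit; activity expressed relative to parent endoglucanase set at 100%.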

[4] = Saccharification of lignocellulose 3 with Celluclast and endoglucanase; type: biochemical, Rice straw; settings: 5 wt % Lignocellulose 3, pH 5.2, 50° C., 24 hours; 1.0 mg/mL cellulase + 0.1 mg/mL endoglucanase
In short: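 Hydrothermally pretreated rice straw (180° C., 20 min) at 5 wt % in 50 mM acetate buffer pH 5.2 digested at 50° C. for 24 h with Celluclast 1.0 mg/mL plus mutant or wild-type endoglucanase 0.1 mg/mL. Released glucose measured over time.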

[5] = Saccharification of lignocellulose 2 with Celluclast and endoglucanase; type: biochemical, Rice straw; settings: 5 wt % Lignocellulose 2, pH 5.2, 50° C., 24 hours; 1.0 mg/mL cellulase + 0.1 mg/mL endoglucanase
In short: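 Dilute-sulfuric-acid-pretreated rice straw (10 wt% solids, pH ~5) suspended at 5 wt% in 50 mM acetate buffer pH 5.2 was digested 24 h at 50 °C with 1.0 mg/mL Trichoderma reesei Celluclast plus 0.1 mg/mL mutant or wild-type endoglucanase; glucose released was measured.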

[6] = Saccharification of lignocellulose 1 with Trichoderma reesei culture solution and endoglucanase; type: biochemical, Rice straw; settings: Lignocellulose 1, 24 hours; cellulase 1.0 mg/mL + endoglucanase 0.1 mg/mL + β-glucosidase (Novozyme 188) 0.01 mg/mL
In short: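 Substrate was liquid-ammonia-treated rice straw (1 h, 150 °C), suspended at 5 wt % in 50 mM acetate buffer pH 5.2 and hydrolysed for 24 h at 50 °C. Enzymes: T. reesei culture solution 1.0 mg/mL, mutant or wild-type endoglucanase 0.1 mg/mL, β-glucosidase 0.01 mg/mL. Glucose released was measured.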

[7] = Inhibition experiment with vanillin: degradation of phosphoric acid swollen cellulose; type: biochemical; settings: enzyme 0.5 μM, 1 hour, 50° C., parent at 0 mM = 100%
Description: This substance was diluted using buffer and water to obtain a 2 wt % mixture so that the final concentration of sodium acetate was 50 mM (pH 5.2). This was designated as phosphoric acid swollen cellulose and used for the following examples.
The activity of the wild-type and the mutant endoglucanases to degrade phosphoric acid swollen cellulose in the presence of vanillin was measured. 1% phosphoric acid swollen cellulose/50 mM acetate buffer (pH 5.2) was used as a substrate. Vanillin (Sigma Aldrich) was added at final concentrations of 0, 5, 10, and 15 mM. The enzymes prepared in Reference Example 1 and Example 2 were added at a final concentration of 0.5 μM, followed by 1 hour of enzymatic reaction at 50° C.

[8] = Saccharification of lignocellulose 3 with Trichoderma reesei culture solution and endoglucanase; type: biochemical, Rice straw; settings: Lignocellulose 3, 24 hours; cellulase 1.0 mg/mL + endoglucanase 0.1 mg/mL + β-glucosidase (Novozyme 188) 0.01 mg/mL
In short: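 Hydrothermally treated rice straw (180 °C, 20 min, 10 MPa; solid fraction) suspended at 5 wt % in 50 mM acetate buffer pH 5.2, hydrolysed 24 h at 50 °C. Enzymes: T. reesei culture-solution cellulase 1.0 mg/mL, mutant or wild-type endoglucanase 0.1 mg/mL, β-glucosidase 0.01 mg/mL; glucose generated measured.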

[9] = Inhibition experiment with ferulic acid: degradation of phosphoric acid swollen cellulose; type: biochemical; settings: enzyme 0.5 μM, 1 hour, 50° C., parent at 0 mM = 100%
[10] = 1% phosphoric acid swollen cellulose, pH 5.2, enzyme 0.5 μM, 1 hour, 50° C., glucose generated by each parent endoglucanase = 100%

Molecule | Concentration of glucose generated, Culture solution + Wild-type [1] [g/L] | Concentration of glucose generated, Celluclast + Wild-type [2] [g/L] | Relative activity [3, 10] [%] | Concentration of glucose generated, Celluclast + Wild-type [4] [g/L] | Concentration of glucose generated, Celluclast + Wild-type [5] [g/L] | Concentration of glucose generated, Culture solution + Wild-type [6] [g/L] | Relative activity to degrade phosphoric acid swollen cellulose ([7]; vanillin 0 mM) [%] | Relative activity to degrade phosphoric acid swollen cellulose ([7]; vanillin 5 mM) [%] | Relative activity to degrade phosphoric acid swollen cellulose ([7]; vanillin 10 mM) [%] | Relative activity to degrade phosphoric acid swollen cellulose ([7]; vanillin 15 mM) [%] | Concentration of glucose generated, Culture solution + Wild-type [8] [g/L] | Relative activity to degrade phosphoric acid swollen cellulose ([9]; ferulic acid 0 mM) [%] | Relative activity to degrade phosphoric acid swollen cellulose ([9]; ferulic acid 5 mM) [%] | Relative activity to degrade phosphoric acid swollen cellulose ([9]; ferulic acid 10 mM) [%] | Relative activity to degrade phosphoric acid swollen cellulose ([9]; ferulic acid 15 mM) [%] | Concentration of glucose generated, Culture solution + Mutant [1] [g/L] | Concentration of glucose generated, Celluclast + Mutant [2] [g/L] | Concentration of glucose generated, Celluclast + Mutant [4] [g/L] | Concentration of glucose generated, Celluclast + Mutant [5] [g/L] | Concentration of glucose generated, Culture solution + Mutant [6] [g/L] | also measured
B1 | 9 | 11 | 100 | 11 | 12 | 8 | 100 | 60 | 55 | 40 | 8 | 100 | 55 | 50 | 50 |  |  |  |  |  | 
B2 | 8 | 12 | 100 | 12 | 11 | 9 | 100 | 40 | 40 | 40 | 10 | 100 | 60 | 50 | 50 |  |  |  |  |  | Relative activity ([3]; Comparative Example 2, technique similar to Example 3, parent endoglucanase = 100%): 100%
B3 |  |  | 100 |  |  |  | 100 | 95 | 90 | 90 |  | 100 | 100 | 100 | 95 | 12 | 16 | 16 | 15 | 13 | Concentration of glucose generated, Culture solution + Mutant [8]: 13 g/L
B4 |  |  | 100 |  |  |  | 100 | 100 | 100 | 90 |  | 100 | 100 | 100 | 90 | 12 | 14 | 14 | 15 | 11 | Concentration of glucose generated, Culture solution + Mutant [8]: 11 g/L
